Experiment [1] deals with T1, human CTLA-4 expressed on cells (293-hCTLA-4 cells; CTLA-4-expressing CHO-K1 cells) (human, UniProt P16410 36-223).
T1 construct: also called CD152; cell-expressed CTLA-4
T1 sequence: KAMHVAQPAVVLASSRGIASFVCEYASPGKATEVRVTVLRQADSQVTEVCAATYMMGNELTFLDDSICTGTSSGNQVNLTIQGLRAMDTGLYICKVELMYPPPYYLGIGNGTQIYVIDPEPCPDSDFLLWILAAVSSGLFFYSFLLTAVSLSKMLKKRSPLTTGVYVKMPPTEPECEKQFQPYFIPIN
Kind of experiment: flow cytometry (MFI) on 293 cells expressing human CTLA-4, Alexa 488 anti-human (H+L) detection. As to the method:
(§1) The culture medium was aspirated, and the cells were washed twice with HBSS (Hanks Balanced Salt Solution, Invitrogen). The cells were treated with enzyme-free cell dissociation solution (Versene solution, Invitrogen) and collected. The cells were then washed twice with HBSS, cell counts were determined, and cells were resuspended with HBSS at 2×10⁶ cells/mL. BSA was added to the cell suspension to a final concentration of 1%, and the cells were blocked for 30 minutes on ice and then washed twice with HBSS. The cells were collected after centrifugation and resuspended in FACS buffer (HBSS+1% BSA, v/v) at 2×10⁶ cells/mL. 100 μL of the cell suspension were then added to each well of a 96-well plate. 100 μL of purified anti-CTLA-4 antibodies from Example 2 or control antibodies were added to each well of the 96-well plate and incubated for 1 hour on ice, wherein the heavy chain and light chain of the Ipilimumab analogue had amino acid sequences of SEQ ID NO.: 199 and SEQ ID NO.: 200, respectively. Cells were washed twice with FACS buffer, and 100 μL of Alexa 488-labeled anti-human (H+L) antibody (Invitrogen) were added to the 96-well plate and incubated for 1 hour on ice. The samples were washed three times with FACS buffer, and 100 μL of fixation buffer (containing 4% paraformaldehyde, v/v) were added to each well and incubated for 10 minutes. The cells were then washed twice with FACS buffer and resuspended in 100 μL of FACS buffer.

Experiment [2] addresses T2, Recombinant mouse CTLA4-his protein (CT4-M52H5, Acro Bio) (mouse, UniProt P09793 36-161).
T2 construct: Bought protein; also called murine CTLA-4; not shown: his tag
The experiment can be described thus: ELISA on coated recombinant mouse CTLA4-his, HRP anti-human IgG (H+L), OD450. The method, then: Recombinant human or mouse CTLA4-his protein (CT4-H5229 for human protein, CT4-M52H5 for mouse protein, Acro Bio) was diluted in PBS to a concentration of 2 μg/mL, and 100 μL of the diluted CTLA-4-his protein was added per well to ELISA microplates, which were incubated overnight at 4° C. to coat the plates with the recombinant proteins. The plates were then blocked with ELISA blocking solution (containing 2% BSA, 0.05% (v/v) Tween-20, pH7.4 PBS buffer, w/v) at 37° C. for two hours and then incubated with anti-CTLA-4 antibodies with various concentrations for 1 hour at 37° C. The plates were washed and incubated with horseradish peroxidase (HRP) conjugated goat anti-human IgG (H+L) antibody (A18805, Life technologies) at 37° C. for one hour. 100 μL of tetramethylbenzidine (TMB) were added, and the plates were incubated at room temperature for 15 minutes. 50 μL of 1N HCl were added to terminate the reaction, and the OD450 nm was determined by an ELISA plate reader.
In general terms: ELISA stands for enzyme-linked immunosorbent assay.

Experiment [3] addresses T3, cyno CTLA-4 expressed on 293 cells (293-cynoCTLA-4 cells) (cyno, UniProt G7PL88 36-223).
T3 construct: also called cynomolgus CTLA-4
T3 sequence: T1 sequence with S14N, L106M
The experiment can be described thus: flow cytometry (MFI) on 293 cells expressing cynomolgus CTLA-4, Alexa 488 anti-human (H+L) detection. As to the method: as §1
(A flow cytometer gives signals particle by particle.)

Experiment [4] concerns the target T1, human CTLA-4 expressed on cells …. Kind of experiment: flow cytometry on 293F-hCTLA-4 cells.
The target is the same in experiment [5]. The experiment can be described thus: cell-based blocking assay, flow cytometry: % blocking of biotinylated B7.1 ECD-Fc binding to 293-hCTLA-4 cells. The method, then:
Cell-Based Receptor-Ligand Binding assay was performed to determine the ability of the anti-CTLA-4 antibodies to block the binding of CTLA-4 to its ligands B7.1. Recombinant B7.1^ECD-Fc protein (B71-H5259, Acro Bio) was biotinylated using EZ-LINK NHS-PEG12-Biotin (Thermo Scientific#21312) according to the manufacturer's instruction. Biotinylated B7.1^ECD-Fc protein was concentrated and free label removed by using Amicon centrifugal filter (10 kDa cut off). The extracellular domain of B7.1 corresponded to amino acids Val35-Asn242 of Uniprot database protein P33681.
The culture medium was aspirated, and the cells were washed twice with PBS. The cells were treated with enzyme-free cell dissociation solution (Versene solution, Invitrogen) and collected. Dissociation solution was neutralized by the addition of 8 mL of culture medium, and cell counts were determined. Cells were centrifuged at 300 g for 5 minutes and resuspended in blocking buffer (containing 2% BSA, pH 7.4 PBS buffer, w/v) at 1×10⁶ cells/mL. The cells were blocked for 15 minutes at 37° C. Meanwhile, the wells of 96-well round-bottom plates were blocked with 200 μL of blocking buffer for 1 hour at 37° C. The blocking buffer was discarded, and 200 μL of cells were dispensed to each well of the 96-well plates (2×10⁵ cells/well). The plates were centrifuged at 500 g for 5 minutes, and the supernatants were discarded. The cells were resuspended in 100 μL of anti-CTLA-4 antibodies prepared in blocking buffer with varying concentrations. 100 μL of biotinylated B7.1 ECD-Fc (60 μg/mL in blocking buffer) were added to each well of 96-well plate and mixed by shaking gently. The plates were incubated at 4° C. for 90 minutes and washed twice with 200 μL blocking buffer. The blocking buffer was discarded, and the cells were resuspended in 100 μL of streptavidin-Alexa 488 solution (Invitrogen, 1:500 in blocking buffer) and incubated at 4° C. for 1 hour. The plates were washed three times with blocking buffer and added with 200 μL of blocking buffer.
The mean fluorescence intensity (MFI) was determined using FACS Calibur (BD).

Experiment [6] concerns the target T4, Recombinant human CTLA-4-his protein (CT4-H5229, Acro Bio) (human, UniProt P16410 36-161).
T4 construct: extracellular domain; Bought protein; also called Human CTLA-4^ECD-his; not shown: his tag
T4 sequence (looked up): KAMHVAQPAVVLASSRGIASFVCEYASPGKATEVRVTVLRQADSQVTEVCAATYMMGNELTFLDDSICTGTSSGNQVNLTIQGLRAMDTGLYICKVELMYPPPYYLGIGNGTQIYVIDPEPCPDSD
The experiment can be described thus: ELISA of 293 supernatants on coated human CTLA4-his.

Changes are numbered by the printed parent chain.

B1: CL24 (antibody, human IgG1, V domains shown)
VH: EVQLVETGGGLIQPGGSLRLSCAASGLNVSRHYLSWVRQAPGKGLEWVAVIYSGGGIEYVDSVKGRFTISRDNANNTLYLQMRSLRTEDSAVYYCARAIPRPHGSDIWGQGTMVTVSS
notes: Human heavy-chain-only antibody (HCAb): two heavy chains, no light chain
For the molecule B1, the “EC50 (read off the curve)” value in experiment [1] is ~2 nM; in experiment [3], ~1 nM. Also, the binding result in experiment [2] is on record as “no binding (tested: 533.3 nM)”.

B2: CL22-dPTM′ (antibody, human IgG1, V domains shown)
VH: EVQLVESGGGLIQPGGSLRLSCAASGFTVRNNYMSWVRQAPGKGLEWVSVIYSGGSITYADSVKGRFTISRDNSKNTLYLQMNSLRAEDTAVYYCARAVPHAPSAFDIWGQGTMVTVSS
notes: HCAb variant with PTM removal
Consider B2, for which the binding result in experiment [4] is recorded as “binds”.

B3: CL30-dPTM′ (antibody, human IgG1, V domains shown)
VH: B2 VH with R30S, N31R, N32I, T58Y, N73S, L78V, A105N, I108K, M114L
notes: HCAb variant with PTM removal
On to B3, for which, in experiment [4], the binding result is “binds”.

B4: CL11 (antibody, human IgG1, V domains shown)
VH: EVQLEETGGDLIQPGGSLRLSCTASGFNVSRIYMSWVRQAPGKGLEWVSVIYSGGSIYYADSVRGRFTISRDSSTNTVFLQMNSLRAEDSAVYYCARAVPSAPSSFDIWGQGTMVTVSS
notes: Human heavy-chain-only antibody (HCAb): two heavy chains, no light chain; also called clone 11
With B4, the “EC50 (read off the curve)” value was ~2 nM in experiment [1] and ~1 nM in experiment [3]. The “IC50 (read off the curve)” value in experiment [5] was 10 to 20 nM. In addition, the binding result in experiment [2] is on record as “no binding (tested: 325.5 nM)”.

B5: CL30-dPTM (antibody, human IgG1, V domains shown)
VH: B4 VH with N28T, F79Y, S101H, S105N, I108K, M114R
notes: HCAb variant with PTM removal
With B5, in experiment [4], the binding result is “binds”.

B6: CL11-dPTM (antibody, human IgG1, V domains shown)
VH: B4 VH with N28T
notes: HCAb variant with PTM removal
B6: the binding result in experiment [4] is “binds”.

B7: CL30 (antibody, human IgG1, V domains shown)
VH: B4 VH with F79Y, S101H, S105N, I108K, M114R
notes: Human heavy-chain-only antibody (HCAb): two heavy chains, no light chain; also called clone 30
For B7, the results for the “EC50 (read off the curve)” value in experiment [1] and in experiment [3] were ~2 nM and ~1 nM, respectively. Also, in experiment [5], the “IC50 (read off the curve)” value is ~10 nM.

B8: CL20 (antibody, human IgG1, V domains shown)
VH: EVQLVESGGGLVQPGGSLRLSCAASGFTFSNYWMHWVRQAPGKGLVWVSRINSDGSNTTYADSVKGRFTISRDNAKNTLYLQMNSLRAEDTAVYYCARWFGEHYYGMDVWGQGTTVTVSS
notes: as for B1
Regarding B8, the binding result in experiment [6] is “binds”.

The term EC50 (read off the curve) denotes the concentration needed to bring the measured effect to its halfway point. Lower therefore signals higher potency in that assay.

Source of the values: US20190202914A1 (HARBOUR BIOMED SHANGHAI, published 2019).
